Measured values as given in patent publication USRE48558 (Genentech, dated 2021).

T1: extracellular domain of human CD79b (human, UniProt P40259 29-159)
T1 construct: also called huCD79becd; huCD79b-ecd
T1 sequence: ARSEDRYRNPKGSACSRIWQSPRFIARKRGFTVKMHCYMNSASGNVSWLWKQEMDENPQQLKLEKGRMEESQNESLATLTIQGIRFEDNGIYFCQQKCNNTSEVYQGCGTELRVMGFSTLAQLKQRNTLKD


Molecular target: T1, extracellular domain of human CD79b
Test: phage selection, Fab on phage, plate-bound huCD79becd

| Binder | binding result |
| --- | --- |
| huMA79b graft variant SEQ ID NO: 17 (Fab, name in Kabat numbering, V domains shown, Fab on phage; rest as huMA79b graft; also called SPL-2 mutation) VH: EVQLVESGGGLVQPGGSLRLSCAASGYTFSSYWIEWVRQAPGKGLEWVGEILPGGGDTNYNEIFKGRFTISADTSKNTAYLQMNSLRAEDTAVYYCTRRVPVYFDYWGQGTLVTVSS VL: DIQMTQSPSSLSASVGDRVTITCKASKSVDYDGDSFLNWYQQKPGKAPKLLIYAASNLESGVPSRFSGSGSGTDFTLTISSLQPEDFATYYCQQSNEDPLTFGQGTKVEIKR | binds |
| huMA79b graft variant SEQ ID NO: 20 (Fab, name in Kabat numbering, V domains shown, Fab on phage; rest as huMA79b graft; also called SPL-5 mutation) VH: EVQLVESGGGLVQPGGSLRLSCAASGYTFSSYWIEWVRQAPGKGLEWVGEILPGGGDTNYNEIFKGRFTISADTSKNTAYLQMNSLRAEDTAVYYCTRRVPVYFDYWGQGTLVTVSS VL: DIQMTQSPSSLSASVGDRVTITCKASQSVDYDGDSFLNWYQQKPGKAPKLLIYAASNLESGVPSRFSGSGSGTDFTLTISSLQPEDFATYYCQQSNSDPLTFGQGTKVEIKR | binds |
| huMA79b graft variant SEQ ID NO: 24 (Fab, name in Kabat numbering, V domains shown, Fab on phage; rest as huMA79b graft) VH: EVQLVESGGGLVQPGGSLRLSCAASGYTFSSYWIEWVRQAPGKGLEWVGEILPGGGDTNYNEIFKGRFTISADTSKNTAYLQMNSLRAEDTAVYYCTRRVPVYFDYWGQGTLVTVSS VL: DIQMTQSPSSLSASVGDRVTITCKASQSVDYDGDSFLNWYQQKPGKAPKLLIYAARKLGNGVPSRFSGSGSGTDFTLTISSLQPEDFATYYCQQSNEDPLTFGQGTKVEIKR | binds |
| huMA79b graft variant SEQ ID NO: 36 (Fab, name in Kabat numbering, V domains shown, Fab on phage; rest as huMA79b graft) VH: EVQLVESGGGLVQPGGSLRLSCAASGYTFSSYWIEWVRQAPGKGLEWVGEILPGGGDTNYNEIFKGRFTISADTSKNTAYLQMNSLRAEDTAVYYCTRRVPVYFDYWGQGTLVTVSS VL: DIQMTQSPSSLSASVGDRVTITCKASQSVDYDGDSFLNWYQQKPGKAPKLLIYAASKLGSGVPSRFSGSGSGTDFTLTISSLQPEDFATYYCQQSNEDPLTFGQGTKVEIKR | binds |
| huMA79b graft variant SEQ ID NO: 26 (Fab, name in Kabat numbering, V domains shown, Fab on phage; rest as huMA79b graft; also called L2-29 mutation) VH: EVQLVESGGGLVQPGGSLRLSCAASGYTFSSYWIEWVRQAPGKGLEWVGEILPGGGDTNYNEIFKGRFTISADTSKNTAYLQMNSLRAEDTAVYYCTRRVPVYFDYWGQGTLVTVSS VL: DIQMTQSPSSLSASVGDRVTITCKASQSVDYDGDSFLNWYQQKPGKAPKLLIYAARYLKRGVPSRFSGSGSGTDFTLTISSLQPEDFATYYCQQSNEDPLTFGQGTKVEIKR | binds |
| huMA79b graft variant SEQ ID NO: 28 (Fab, name in Kabat numbering, V domains shown, Fab on phage; rest as huMA79b graft) VH: EVQLVESGGGLVQPGGSLRLSCAASGYTFSSYWIEWVRQAPGKGLEWVGEILPGGGDTNYNEIFKGRFTISADTSKNTAYLQMNSLRAEDTAVYYCTRRVPVYFDYWGQGTLVTVSS VL: DIQMTQSPSSLSASVGDRVTITCKASQSVDYDGDSFLNWYQQKPGKAPKLLIYAARKLASGVPSRFSGSGSGTDFTLTISSLQPEDFATYYCQQSNEDPLTFGQGTKVEIKR | binds |
| huMA79b graft variant SEQ ID NO: 33 (Fab, name in Kabat numbering, V domains shown, Fab on phage; rest as huMA79b graft) VH: EVQLVESGGGLVQPGGSLRLSCAASGYTFSSYWIEWVRQAPGKGLEWVGEILPGGGDTNYNEIFKGRFTISADTSKNTAYLQMNSLRAEDTAVYYCTRRVPVYFDYWGQGTLVTVSS VL: DIQMTQSPSSLSASVGDRVTITCKASQSVDYDGDSFLNWYQQKPGKAPKLLIYASRYLSRGVPSRFSGSGSGTDFTLTISSLQPEDFATYYCQQSNEDPLTFGQGTKVEIKR | binds |
| huMA79b graft variant SEQ ID NO: 35 (Fab, name in Kabat numbering, V domains shown, Fab on phage; rest as huMA79b graft) VH: EVQLVESGGGLVQPGGSLRLSCAASGYTFSSYWIEWVRQAPGKGLEWVGEILPGGGDTNYNEIFKGRFTISADTSKNTAYLQMNSLRAEDTAVYYCTRRVPVYFDYWGQGTLVTVSS VL: DIQMTQSPSSLSASVGDRVTITCKASQSVDYDGDSFLNWYQQKPGKAPKLLIYAASNRKSGVPSRFSGSGSGTDFTLTISSLQPEDFATYYCQQSNEDPLTFGQGTKVEIKR | binds |
| huMA79b graft variant SEQ ID NO: 23 (Fab, name in Kabat numbering, V domains shown, Fab on phage; rest as huMA79b graft) VH: EVQLVESGGGLVQPGGSLRLSCAASGYTFSSYWIEWVRQAPGKGLEWVGEILPGGGDTNYNEIFKGRFTISADTSKNTAYLQMNSLRAEDTAVYYCTRRVPVYFDYWGQGTLVTVSS VL: DIQMTQSPSSLSASVGDRVTITCKASQSVDYDGDSFLNWYQQKPGKAPKLLIYAASRLESGVPSRFSGSGSGTDFTLTISSLQPEDFATYYCQQSNEDPLTFGQGTKVEIKR | binds |
| huMA79b graft variant SEQ ID NO: 49 (Fab, name in Kabat numbering, V domains shown, Fab on phage; rest as huMA79b graft) VH: EVQLVESGGGLVQPGGSLRLSCAASGYTFSSYWIEWVRQAPGKGLEWVGEILPGGGDTNYNEIFKGRFTISADTSKNTAYLQMNSLRAEDTAVYYCTRRVPVYFDYWGQGTLVTVSS VL: DIQMTQSPSSLSASVGDRVTITCKASQSVDYDGDSFLNWYQQKPGKAPKLLIYAASNLESGVPSRFSGSGSGTDFTLTISSLQPEDFATYYCQQSNDDPLTFGQGTKVEIKR | binds |
| huMA79b graft variant SEQ ID NO: 30 (Fab, name in Kabat numbering, V domains shown, Fab on phage; rest as huMA79b graft) VH: EVQLVESGGGLVQPGGSLRLSCAASGYTFSSYWIEWVRQAPGKGLEWVGEILPGGGDTNYNEIFKGRFTISADTSKNTAYLQMNSLRAEDTAVYYCTRRVPVYFDYWGQGTLVTVSS VL: DIQMTQSPSSLSASVGDRVTITCKASQSVDYDGDSFLNWYQQKPGKAPKLLIYAARKLRSGVPSRFSGSGSGTDFTLTISSLQPEDFATYYCQQSNEDPLTFGQGTKVEIKR | binds |
| huMA79b graft variant SEQ ID NO: 31 (Fab, name in Kabat numbering, V domains shown, Fab on phage; rest as huMA79b graft; also called L2-38 mutation) VH: EVQLVESGGGLVQPGGSLRLSCAASGYTFSSYWIEWVRQAPGKGLEWVGEILPGGGDTNYNEIFKGRFTISADTSKNTAYLQMNSLRAEDTAVYYCTRRVPVYFDYWGQGTLVTVSS VL: DIQMTQSPSSLSASVGDRVTITCKASQSVDYDGDSFLNWYQQKPGKAPKLLIYAARKLGSGVPSRFSGSGSGTDFTLTISSLQPEDFATYYCQQSNEDPLTFGQGTKVEIKR | binds |
| huMA79b graft variant SEQ ID NO: 29 (Fab, name in Kabat numbering, V domains shown, Fab on phage; rest as huMA79b graft) VH: EVQLVESGGGLVQPGGSLRLSCAASGYTFSSYWIEWVRQAPGKGLEWVGEILPGGGDTNYNEIFKGRFTISADTSKNTAYLQMNSLRAEDTAVYYCTRRVPVYFDYWGQGTLVTVSS VL: DIQMTQSPSSLSASVGDRVTITCKASQSVDYDGDSFLNWYQQKPGKAPKLLIYAAGILARGVPSRFSGSGSGTDFTLTISSLQPEDFATYYCQQSNEDPLTFGQGTKVEIKR | binds |
| huMA79b graft variant SEQ ID NO: 27 (Fab, name in Kabat numbering, V domains shown, Fab on phage; rest as huMA79b graft) VH: EVQLVESGGGLVQPGGSLRLSCAASGYTFSSYWIEWVRQAPGKGLEWVGEILPGGGDTNYNEIFKGRFTISADTSKNTAYLQMNSLRAEDTAVYYCTRRVPVYFDYWGQGTLVTVSS VL: DIQMTQSPSSLSASVGDRVTITCKASQSVDYDGDSFLNWYQQKPGKAPKLLIYAARKLKSGVPSRFSGSGSGTDFTLTISSLQPEDFATYYCQQSNEDPLTFGQGTKVEIKR | binds |
| huMA79b graft variant SEQ ID NO: 25 (Fab, name in Kabat numbering, V domains shown, Fab on phage; rest as huMA79b graft) VH: EVQLVESGGGLVQPGGSLRLSCAASGYTFSSYWIEWVRQAPGKGLEWVGEILPGGGDTNYNEIFKGRFTISADTSKNTAYLQMNSLRAEDTAVYYCTRRVPVYFDYWGQGTLVTVSS VL: DIQMTQSPSSLSASVGDRVTITCKASQSVDYDGDSFLNWYQQKPGKAPKLLIYAARKLKRGVPSRFSGSGSGTDFTLTISSLQPEDFATYYCQQSNEDPLTFGQGTKVEIKR | binds |
| huMA79b graft variant SEQ ID NO: 32 (Fab, name in Kabat numbering, V domains shown, Fab on phage; rest as huMA79b graft) VH: EVQLVESGGGLVQPGGSLRLSCAASGYTFSSYWIEWVRQAPGKGLEWVGEILPGGGDTNYNEIFKGRFTISADTSKNTAYLQMNSLRAEDTAVYYCTRRVPVYFDYWGQGTLVTVSS VL: DIQMTQSPSSLSASVGDRVTITCKASQSVDYDGDSFLNWYQQKPGKAPKLLIYAARHLKRGVPSRFSGSGSGTDFTLTISSLQPEDFATYYCQQSNEDPLTFGQGTKVEIKR | binds |
| huMA79b graft variant SEQ ID NO: 34 (Fab, name in Kabat numbering, V domains shown, Fab on phage; rest as huMA79b graft) VH: EVQLVESGGGLVQPGGSLRLSCAASGYTFSSYWIEWVRQAPGKGLEWVGEILPGGGDTNYNEIFKGRFTISADTSKNTAYLQMNSLRAEDTAVYYCTRRVPVYFDYWGQGTLVTVSS VL: DIQMTQSPSSLSASVGDRVTITCKASQSVDYDGDSFLNWYQQKPGKAPKLLIYAGSKLLRGVPSRFSGSGSGTDFTLTISSLQPEDFATYYCQQSNEDPLTFGQGTKVEIKR | binds |
| huMA79b graft variant SEQ ID NO: 19 (Fab, name in Kabat numbering, V domains shown, Fab on phage; rest as huMA79b graft) VH: EVQLVESGGGLVQPGGSLRLSCAASGYTFSSYWIEWVRQAPGKGLEWVGEILPGGGDTNYNEIFKGRFTISADTSKNTAYLQMNSLRAEDTAVYYCTRRVPVYFDYWGQGTLVTVSS VL: DIQMTQSPSSLSASVGDRVTITCKASQSVDYDGDSFLNWYQQKPGKAPKLLIYAASNLKSGVPSRFSGSGSGTDFTLTISSLQPEDFATYYCQQSNEDPLTFGQGTKVEIKR | binds |
| huMA79b graft variant SEQ ID NO: 50 (Fab, name in Kabat numbering, V domains shown, Fab on phage; rest as huMA79b graft) VH: EVQLVESGGGLVQPGGSLRLSCAASGYTFSSYWIEWVRQAPGKGLEWVGEILPGGGDTNYNEIFKGRFTISADTSKNTAYLQMNSLRAEDTAVYYCTRRVPVYFDYWGQGTLVTVSS VL: DIQMTQSPSSLSASVGDRVTITCKASQSVDYDGDSFLNWYQQKPGKAPKLLIYAASNLESGVPSRFSGSGSGTDFTLTISSLQPEDFATYYCQQSNLDPLTFGQGTKVEIKR | binds |
| huMA79b graft variant SEQ ID NO: 18 (Fab, name in Kabat numbering, V domains shown, Fab on phage; rest as huMA79b graft) VH: EVQLVESGGGLVQPGGSLRLSCAASGYTFSSYWIEWVRQAPGKGLEWVGEILPGGGDTNYNEIFKGRFTISADTSKNTAYLQMNSLRAEDTAVYYCTRRVPVYFDYWGQGTLVTVSS VL: DIQMTQSPSSLSASVGDRVTITCKASQSVDYDGDSFLNWYQQKPGKAPKLLIYAASNRESGVPSRFSGSGSGTDFTLTISSLQPEDFATYYCQQSNEDPLTFGQGTKVEIKR | binds |
| huMA79b graft variant SEQ ID NO: 21 (Fab, name in Kabat numbering, V domains shown, Fab on phage; rest as huMA79b graft) VH: EVQLVESGGGLVQPGGSLRLSCAASGYTFSSYWIEWVRQAPGKGLEWVGEILPGGGDTNYNEIFKGRFTISADTSKNTAYLQMNSLRAEDTAVYYCTRRVPVYFDYWGQGTLVTVSS VL: DIQMTQSPSSLSASVGDRVTITCKASQSVDYDGDSFLNWYQQKPGKAPKLLIYAASNLESGVPSRFSGSGSGTDFTLTISSLQPEDFATYYCQQSNKDPLTFGQGTKVEIKR | binds |
